Assay [1] addresses T1, Human CD16a F158 (FcγRIIIa F158) (human, UniProt P08637 17-208, biotinylated).
T1 construct: Bought recombinant receptor; also called hFcγRIIIa F158
The experiment in a line: SPR 25C, receptor captured, steady-state fit.

The target of assay [2] is T2, Cynomolgus CD16 (FcγRIII) (cynomolgus monkey, UniProt Q8SPW2 17-208, biotinylated).
T2 construct: Bought recombinant receptor; also called cFcγRIII; Cyno FcγRIII
Kind of assay: SPR 25C, average.

The target of assay [3] is T3, Human CLEC12A-His (recombinant, K244 WT) (human, UniProt Q5QGZ9 65-265).
T3 construct: Made in house (Dragonfly Tx); also called hCLEC12A; hCLEC12A-His; not shown: His tag
T3 sequence: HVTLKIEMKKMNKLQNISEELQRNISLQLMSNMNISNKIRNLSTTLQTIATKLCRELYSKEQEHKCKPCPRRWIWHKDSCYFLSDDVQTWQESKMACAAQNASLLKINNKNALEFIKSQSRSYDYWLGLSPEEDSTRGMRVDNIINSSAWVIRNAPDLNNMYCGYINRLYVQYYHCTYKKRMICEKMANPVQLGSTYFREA
Kind of assay: SPR, two-state fit (ka1); control sample.

For assay [4], the target named is T3, Human CLEC12A-His (recombinant, K244 WT). Kind of assay: SPR, two-state fit; control sample. (Surface plasmon resonance follows binding to a sensor surface in real time, without labels.)
Method: (§1) Briefly, human Fc specific antibodies were covalently immobilized at a density ˜8000-10000 resonance units (RU) on carboxy methyl dextran matrix of a CM5 biosensor chip via amine-coupling chemistry to create an anti-hFc IgG chip. […] Association was monitored for 300 seconds and dissociation was monitored for 600 seconds. Surfaces were regenerated between cycles with three pulses of 10 mM glycine-HCl, pH 1.7 injected for 20 seconds at 100 μl/min. HBS-EP+ (1×) with 0.1 mg/ml BSA was used as running buffer throughout the experiment. Experiments were performed at physiological temperature of 37° C. To obtain kinetic rate constants and overall binding affinity, double-referenced data were fit to a two-state kinetic model using Biacore 8K Insight Evaluation software (Cytiva).
Assay [5] has the same target. Kind of assay: SPR, two-state fit; fully purified protein after low pH hold.
Method: as §1
Assay [6] has the same target. Kind of assay: SPR, two-state fit; after low pH hold.
Method: as §1
In another assay the target is T4, Human CLEC12A-His (human, UniProt Q5QGZ9 65-265).
T4 construct: Recombinant soluble protein made in house; also called hCLEC12A-His; hCLEC12A; not shown: His tag
T4 sequence: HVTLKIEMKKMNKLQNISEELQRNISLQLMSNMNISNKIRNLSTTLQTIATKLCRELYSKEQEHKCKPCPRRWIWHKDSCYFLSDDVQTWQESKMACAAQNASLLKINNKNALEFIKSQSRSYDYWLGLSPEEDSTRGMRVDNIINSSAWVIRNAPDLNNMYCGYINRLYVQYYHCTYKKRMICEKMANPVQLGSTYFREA
Kind of assay: SPR; sample after pH 5.0, 40 C, 2 weeks.

Assay [7] addresses T5, mFc-hNKG2D (human, UniProt P26718 73-216).
T5 construct: extracellular domain; Recombinant mFc-tagged NKG2D dimer, made in house; also called human NKG2D; not shown: mouse Fc tag
T5 sequence (looked up): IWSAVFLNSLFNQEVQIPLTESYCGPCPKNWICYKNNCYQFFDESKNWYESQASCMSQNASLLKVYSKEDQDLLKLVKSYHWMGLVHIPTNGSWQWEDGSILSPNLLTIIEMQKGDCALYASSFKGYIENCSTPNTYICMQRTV
The experiment in a line: SPR; sample after pH 5.0, 40 C, 2 weeks.

The target of a further assay is T6, Human CD16a V158 (human, UniProt P08637 17-208, biotinylated).
T6 construct: Bought recombinant receptor; also called hCD16a (V158); hFcγRIIIa V158
The experiment in a line: SPR; sample after pH 5.0, 40 C, 2 weeks.

The target of assay [8] is T5, mFc-hNKG2D. Kind of assay: SPR, 37 C, mFc-hNKG2D captured, kinetic fit.
From the text: NKG2D is a dimer in nature, therefore recombinant mFc-tagged NKG2D dimer was used for this experiment. […] Two different fits were utilized to obtain the equilibrium affinity data: steady state affinity fit and kinetic fit.
In assay [9] the target is T7, recombinant human CLEC12A-His (human, UniProt Q5QGZ9 65-265).
T7 construct: also called hCLEC12A-His; hCLEC12A
T7 sequence: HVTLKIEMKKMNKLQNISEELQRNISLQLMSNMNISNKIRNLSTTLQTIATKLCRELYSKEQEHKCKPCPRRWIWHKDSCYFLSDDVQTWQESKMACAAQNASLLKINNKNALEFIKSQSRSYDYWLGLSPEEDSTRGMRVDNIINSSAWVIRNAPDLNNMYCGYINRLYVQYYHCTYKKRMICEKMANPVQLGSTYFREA
Kind of assay: SPR 37C.

Assay [10] has as its target T8, human CLEC12A expressed on cells (human, UniProt Q5QGZ9 1-265).
T8 construct: Transduced isogenic cells or endogenous expression on AML cells; also called RMA-hCLEC12A; Ba/F3-hCLEC12A
T8 sequence: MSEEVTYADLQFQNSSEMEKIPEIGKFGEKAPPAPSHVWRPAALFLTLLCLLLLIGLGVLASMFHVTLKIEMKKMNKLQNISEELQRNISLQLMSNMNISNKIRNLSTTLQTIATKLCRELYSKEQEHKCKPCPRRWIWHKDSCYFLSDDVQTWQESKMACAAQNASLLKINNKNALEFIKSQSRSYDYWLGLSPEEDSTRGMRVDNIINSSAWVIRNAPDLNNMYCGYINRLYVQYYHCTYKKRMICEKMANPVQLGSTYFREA
The experiment in a line: flow cytometry, HL60. For orientation: A flow cytometer gives signals particle by particle.

For a further assay, the target named is T9, recombinant human CD16b (human, UniProt O75015 17-200, limits assumed, biotinylated).
T9 construct: also called FcγRIIIb
The experiment in a line: SPR 25C, steady state.

Where “and” joins values, the source holds several entries; their conditions need not be identical. Identical values can stand only once.

T6 sequence (P08637 17-208 F176V limits assumed): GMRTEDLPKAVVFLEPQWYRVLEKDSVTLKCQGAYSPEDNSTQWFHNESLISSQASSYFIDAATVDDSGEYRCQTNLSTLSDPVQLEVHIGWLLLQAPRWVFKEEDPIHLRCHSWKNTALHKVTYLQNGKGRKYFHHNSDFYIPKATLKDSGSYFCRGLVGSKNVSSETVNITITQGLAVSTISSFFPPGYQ
T9 sequence (O75015 17-200 limits assumed): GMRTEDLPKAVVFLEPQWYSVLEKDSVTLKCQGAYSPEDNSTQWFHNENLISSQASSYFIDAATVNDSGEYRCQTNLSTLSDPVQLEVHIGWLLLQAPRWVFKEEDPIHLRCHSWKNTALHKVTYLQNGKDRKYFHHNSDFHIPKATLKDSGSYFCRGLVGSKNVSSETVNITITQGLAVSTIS
T1 sequence (P08637 17-208 limits assumed): as the sequence (P08637 17-208 F176V limits assumed) above, with V160F counted along it
T2 sequence (Q8SPW2 17-208 limits assumed): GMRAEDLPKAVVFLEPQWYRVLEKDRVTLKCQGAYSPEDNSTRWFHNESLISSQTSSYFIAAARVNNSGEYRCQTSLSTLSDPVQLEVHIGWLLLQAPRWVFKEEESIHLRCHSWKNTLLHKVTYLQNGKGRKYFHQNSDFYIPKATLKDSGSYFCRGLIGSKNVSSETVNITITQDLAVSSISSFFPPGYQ

B1: AB0089 TriNKET (bispecific antibody, human IgG1, kappa)
chain: QLQLQESGPGLVKPSETLSLTCTVSGFSLTNYGLHWIRQPPGKCLEWIGVIWVGGATDYNPSLKSRVTISVDTSKNQFSLKLSSVQAADTAVYYCAKGDYGDTLDYWGQGTLVTVSSGGGGSGGGGSGGGGSGGGGSDIQMTQSPSSLSASVGDRVTITCHASQNINFWLSWYQQKPGKAPKLLIYEASNLHTGVPSRFSGSGSGTDFTLTISSLQPEDFATYYCQQSHSYPLTFGCGTKLEIKGSDKTHTCPPCPAPELLGGPSVFLFPPKPKDTLMISRTPEVTCVVVDVSHEDPEVKFNWYVDGVEVHNAKTKPREEQYNSTYRVVSVLTVLHQDWLNGKEYKCKVSNKALPAPIEKTISKAKGQPREPRVYTLPPCRDELTKNQVSLTCLVKGFYPSDIAVEWESNGQPENNYKTTPPVLVSDGSFTLYSKLTVDKSRWQQGNVFSCSVMHEALHNHYTQKSLSLSPG
heavy: EVQLVESGGGLVKPGGSLRLSCAASGFTFSSYSMNWVRQAPGKGLEWVSSISSSSSYIYYADSVKGRFTISRDNAKNSLYLQMNSLRAEDTAVYYCARGAPIGAAAGWFDPWGQGTLVTVSSASTKGPSVFPLAPSSKSTSGGTAALGCLVKDYFPEPVTVSWNSGALTSGVHTFPAVLQSSGLYSLSSVVTVPSSSLGTQTYICNVNHKPSNTKVDKKVEPKSCDKTHTCPPCPAPELLGGPSVFLFPPKPKDTLMISRTPEVTCVVVDVSHEDPEVKFNWYVDGVEVHNAKTKPREEQYNSTYRVVSVLTVLHQDWLNGKEYKCKVSNKALPAPIEKTISKAKGQPREPQVCTLPPSRDELTENQVSLTCLVKGFYPSDIAVEWESNGQPENNYKTTPPVLDSDGSFFLYSWLTVDKSRWQQGNVFSCSVMHEALHNHYTQKSLSLSPG
light: DIQMTQSPSSVSASVGDRVTITCRASQGISSWLAWYQQKPGKAPKLLIYAASSLQSGVPSRFSGSGSGTDFTLTISSLQPEDFATYYCQQGVSFPRTFGGGTKVEIKRTVAAPSVFIFPPSDEQLKSGTASVVCLLNNFYPREAKVQWKVDNALQSGNSQESVTEQDSKDSTYSLSSTLTLSKADYEKHKVYACEVTHQGLSSPVTKSFNRGEC
notes: F3' format heterodimer of three chains; human IgG1 Fc with EW-RVT and Y349C/S354C mutations; also called AB0089 Lot AB0089-002; CLEC12A TriNKET AB0089
Regarding B1, the Kd is 1250 nM and 1280 nM and 1300 nM in [1]; 349 nM in assay [2]; 1 nM in [4]; 0.53 nM in assay [5]; 0.7 nM in [6]. Moreover, the kon in [3] was found to be 8.87e+06 M⁻¹ s⁻¹.

B2: AB0192 TriNKET (other)
chain: EVQLVESGGGVVQPGGSLRLSCAASGFTFNAFGMHWVRQAPGKCLEWVAFISSGSTSIYYANTVKGRFTISRDNSKNTLYLQMNSLRAEDTAVYYCARDGYPTGGAMDYWGQGTSVTVSSGGGGSGGGGSGGGGSGGGGSDIQMTQSPSSLSASVGDRVTITCKASQDIYNYLSWFQQKPGKAPKPLIYRANILVSGVPSRFSGSGSGQDYTFTISSLQPEDIATYYCLQFDAFPFTFGCGTKLEIKGSDKTHTCPPCPAPELLGGPSVFLFPPKPKDTLMISRTPEVTCVVVDVSHEDPEVKFNWYVDGVEVHNAKTKPREEQYNSTYRVVSVLTVLHQDWLNGKEYKCKVSNKALPAPIEKTISKAKGQPREPRVYTLPPCRDELTKNQVSLTCLVKGFYPSDIAVEWESNGQPENNYKTTPPVLVSDGSFTLYSKLTVDKSRWQQGNVFSCSVMHEALHNHYTQKSLSLSPG
heavy: EVQLVESGGGLVKPGGSLRLSCAASGFTFSSYSMNWVRQAPGKGLEWVSSISSSSSYIYYADSVKGRFTISRDNAKNSLYLQMNSLRAEDTAVYYCARGAPIGAAAGWFDPWGQGTLVTVSSASTKGPSVFPLAPSSKSTSGGTAALGCLVKDYFPEPVTVSWNSGALTSGVHTFPAVLQSSGLYSLSSVVTVPSSSLGTQTYICNVNHKPSNTKVDKKVEPKSCDKTHTCPPCPAPELLGGPSVFLFPPKPKDTLMISRTPEVTCVVVDVSHEDPEVKFNWYVDGVEVHNAKTKPREEQYNSTYRVVSVLTVLHQDWLNGKEYKCKVSNKALPAPIEKTISKAKGQPREPQVCTLPPSRDELTENQVSLTCLVKGFYPSDIAVEWESNGQPENNYKTTPPVLDSDGSFFLYSWLTVDKSRWQQGNVFSCSVMHEALHNHYTQKSLSLSPG
light: DIQMTQSPSSVSASVGDRVTITCRASQGISSWLAWYQQKPGKAPKLLIYAASSLQSGVPSRFSGSGSGTDFTLTISSLQPEDFATYYCQQGVSFPRTFGGGTKVEIKRTVAAPSVFIFPPSDEQLKSGTASVVCLLNNFYPREAKVQWKVDNALQSGNSQESVTEQDSKDSTYSLSSTLTLSKADYEKHKVYACEVTHQGLSSPVTKSFNRGEC
notes: the condition stands under assay; also called AB0192 Lot AB0192-005
Take B2: the Kd in the assay with Human CLEC12A-His is 1.65 nM; in the assay with mFc-hNKG2D [7] it was 574 nM; in the assay with Human CD16a V158, 192 nM; in the assay with mFc-hNKG2D [8] it was 770 nM and 778 nM and 790 nM. The koff in the assay with Human CLEC12A-His came out at 0.0013 s⁻¹; with mFc-hNKG2D [7] it was 0.12 s⁻¹; in the assay with Human CD16a V158 it was 0.0208 s⁻¹. In addition, the kon in the assay with Human CLEC12A-His is 787000 M⁻¹ s⁻¹; with mFc-hNKG2D [7], 210000 M⁻¹ s⁻¹; in the assay with Human CD16a V158 it was 108000 M⁻¹ s⁻¹.

B3: F3'-1602 TriNKET (other)
chain: QLQLQESGPGLVKPSETLSLTCTVSGFSLTNYGLHWIRQPPGKCLEWIGVIWSGGKTDYNPSLKSRVTISKDTSKNQFSLKLSSVQAADTAVYYCAKYDYDDSLDYWGQGTLVTVSSGGGGSGGGGSGGGGSGGGGSDIQMTQSPSSLSASVGDRVTITCHASQNINFWLSWYQQKPGKAPKLLIYEASNLHTGVPSRFSGSGSGTRFTLTISSLQPEDIATYYCQQSHSYPLTFGCGTKLEIKGSDKTHTCPPCPAPELLGGPSVFLFPPKPKDTLMISRTPEVTCVVVDVSHEDPEVKFNWYVDGVEVHNAKTKPREEQYNSTYRVVSVLTVLHQDWLNGKEYKCKVSNKALPAPIEKTISKAKGQPREPRVYTLPPCRDELTKNQVSLTCLVKGFYPSDIAVEWESNGQPENNYKTTPPVLVSDGSFTLYSKLTVDKSRWQQGNVFSCSVMHEALHNHYTQKSLSLSPG
heavy: EVQLVESGGGLVKPGGSLRLSCAASGFTFSSYSMNWVRQAPGKGLEWVSSISSSSSYIYYADSVKGRFTISRDNAKNSLYLQMNSLRAEDTAVYYCARGAPIGAAAGWFDPWGQGTLVTVSSASTKGPSVFPLAPSSKSTSGGTAALGCLVKDYFPEPVTVSWNSGALTSGVHTFPAVLQSSGLYSLSSVVTVPSSSLGTQTYICNVNHKPSNTKVDKKVEPKSCDKTHTCPPCPAPELLGGPSVFLFPPKPKDTLMISRTPEVTCVVVDVSHEDPEVKFNWYVDGVEVHNAKTKPREEQYNSTYRVVSVLTVLHQDWLNGKEYKCKVSNKALPAPIEKTISKAKGQPREPQVCTLPPSRDELTENQVSLTCLVKGFYPSDIAVEWESNGQPENNYKTTPPVLDSDGSFFLYSWLTVDKSRWQQGNVFSCSVMHEALHNHYTQKSLSLSPG
light: DIQMTQSPSSVSASVGDRVTITCRASQGISSWLAWYQQKPGKAPKLLIYAASSLQSGVPSRFSGSGSGTDFTLTISSLQPEDFATYYCQQGVSFPRTFGGGTKVEIKRTVAAPSVFIFPPSDEQLKSGTASVVCLLNNFYPREAKVQWKVDNALQSGNSQESVTEQDSKDSTYSLSSTLTLSKADYEKHKVYACEVTHQGLSSPVTKSFNRGEC
notes: CLEC12A scFv-Fc, NKG2D A49MI Fab-Fc, human IgG1 Fc; also called AB0237
For the molecule B3, in [9], the Kd was 0.58 nM and 0.59 nM and 0.57 nM and 0.6 nM; the dissociation rate constant (koff) was 0.000494 s⁻¹ and 0.000489 s⁻¹ and 0.000499 s⁻¹; the kon was 854000 M⁻¹ s⁻¹ and 833000 M⁻¹ s⁻¹ and 863000 M⁻¹ s⁻¹ and 826000 M⁻¹ s⁻¹. In assay [10], this molecule registered a 50% effective concentration (EC50) of 1.1 nM. Besides, in the assay with recombinant human CD16b, the Kd is 7600 nM and 7200 nM and 8600 nM and 6500 nM.

Usually Kd stands for the constant that tells how readily two partners part at equilibrium. One may read the kon as the second-order rate constant of association. The term koff denotes a measure of how fast the partners let go of each other. A word on the EC50: it is the concentration at which the effect is half-maximal. High values mean weaker potency, low ones greater potency.

The values above are taken from patent US20220119534A1 (DRAGONFLY THERAPEUTICS, published 2022).
